One test concerns the target T1, CRH (NT-Biotin) (human and mouse, not fully specified; biotin at the N-terminus).
T1 construct: also called Biotin-CRH; N-terminally biotinylated corticotropin-releasing hormone
T1 peptide: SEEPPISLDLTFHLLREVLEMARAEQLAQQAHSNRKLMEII
Nature of the test: ELISA, N-terminally biotinylated CRH on streptavidin-coated plate. On the procedure:
(§1) Streptavidin (Thermo, Cat: 21125) was diluted in PBS to a concentration of 2 μg/ml. 100 μl of diluted streptavidin was added per well to ELISA microplates, and the plates were incubated overnight at 4° C. […] 100 μL of 3,3′,5,5′-tetramethylbenzidine (TMB) substrate (Biopanda, Cat: TMB-S-003) was added, and the plates were incubated at room temperature for 15 minutes. 100 μL of ELISA stopping solution (Solarbio, Cat #: C1058) was added to terminate the reaction, and the optical density at 450 nm (OD450 nm) was determined by an ELISA plate reader (Molecular Devices, Spectra max 384 plus).

The target of test [1] is T2, corticotropin-releasing hormone (CRH) peptide (human and mouse, not fully specified).
T2 peptide: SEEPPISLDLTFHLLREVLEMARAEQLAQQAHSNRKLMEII
Nature of the test: cell-based or functional assay.

A further test addresses T3, CRH (CT-Biotin) (human and mouse, biotin on the added C-terminal K (-K-Biotin)).
T3 construct: also called Peptide 4 (CRH-Biotin); C-terminally biotinylated corticotropin-releasing hormone
T3 peptide: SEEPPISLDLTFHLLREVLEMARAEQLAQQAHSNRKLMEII
Briefly: ELISA, C-terminally biotinylated CRH on streptavidin-coated plate. On the procedure:
as §1

Test [2] deals with T4, corticotropin-releasing hormone (CRH) peptide (human and mouse (same sequence), not fully specified).
T4 peptide: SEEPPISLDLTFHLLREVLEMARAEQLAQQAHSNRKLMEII
Briefly: cell-based or functional assay.

B1: PR301788 (antibody, human IgG1, kappa, V domains shown)
VH: EMKLEESGGGLVQPGGSMKLSCVASGFTFSNYWMNWVRQSPEKGLEWVAEIRLKSNNYATHYAESVKGRFTISRDDSKSSVYLQMNNLRAEDTGIYYCTIGTLVYWGQGTLVTVSA
VL: DIVLTQSPASLAVSLGQRATISCRASQSVSTSTYNYMHWFQQKPGQPPKLLIKFASNLESGVPARFSGSGSGTDFTLNIHPVEEEDTATFYCQHSWEIPYTFGGGTKLEIKR
notes: Mouse variable domains, expressed recombinantly with human IgG1 wildtype Fc; also called Series 5 mAb
As to B1, the EC50 was 0.018 nM with CRH (NT-Biotin) and 0.011 nM with CRH (CT-Biotin). In test [1], the “hCRHR1 Reporter IC50” value was 0.46 nM.

B2: PR301306 (antibody, human IgG1, kappa, V domains shown)
VH: EVKLEESGGGLVQPGGSMKLSCVASGFTFSNYWMNWVRQSPEKGLEWVAEIRLKSNNYATLYAESVKGRFTISRDDSKSSVYLQMNNLRAEDTGIYYCTRGTLVYWGQGTLVTVSA
VL: DIVLTQSPASLAVSLGQRATISCRASQSVSTSDYNYMHWYQQKPGQPPKLLIKYASNLESGVPARFSGSGSGTDFTLNIHPVEEEDTATYYCQHSWEIPYTFGGGTKLEIKR
notes: Mouse variable domains, expressed recombinantly with human IgG1 wildtype Fc; also called Series 3 mAb
Regarding B2, the EC50 with CRH (NT-Biotin) stood at 0.094 nM; in the test with CRH (CT-Biotin), 0.037 nM. In addition, the “hCRHR1 Reporter IC50” value in test [1] turned out to be 35.6 nM.

B3: PR301790 (antibody, human IgG1, kappa, V domains shown)
VH: EMKLEESGGGLVQPGGSMKLSCVASGFTFSNYWMNWVRQSPEKGLEWVAEIRLKSNNYATHYAESVKGRFTISRDDSKSSVYLQMNNLRAEDTGIYYCTIGTLVYWGQGTLVTVSA
VL: DIVLTQSPASLAVSLGQRATISCRASQSVSTSSYNYMHWYQQKPGQPPKLLIKFASNLESGVPARFSGSGSGTDFTLNIHPVEEEDTATFYCQHSWEIPYTFGGGTKLEIKR
notes: as for B1
B3: the values for the EC50 with CRH (NT-Biotin) and with CRH (CT-Biotin) were 0.017 nM and 0.019 nM, respectively. The “hCRHR1 Reporter IC50” value in test [1] amounted to 0.055 nM.

B4: PR301777 (antibody, human IgG1, kappa, V domains shown)
VH: EMKLEESGGGLVQPGGSMKLSCVASGFTFSNYWMNWVRQSPEKGLEWVAEIRLKSNNYATHYAESVKGRFTISRDDSKSGVYLQMNNLGAEDTGIYYCTVGTLVYWGQGTLVTVSA
VL: DIVLTQSPASLAVSLGQRATISCRASQSVSTSTYNYMHWFQQKPGQPPKLLIKFASNLESGVPARFSGSGSGTDFTLNIHPVEEEDTATFYCQHSWEIPYTFGGGTKLEIKR
notes: as for B1
B4: the results for the EC50 with CRH (NT-Biotin) and with CRH (CT-Biotin) were 0.027 nM and 0.038 nM, respectively. Moreover, the “hCRHR1 Reporter IC50” value in test [1] amounted to 0.609 nM.

B5: PR301803 (antibody, human IgG1, kappa, V domains shown)
VH: EVKLEESGGGLVQPGGSMKLSCVASGFTFNNYWMNWVRQSPEKGLEWVAEIRLKSNNYATHYAESLKGRFTISRDDSKSSVYLQMNNLRAEDTGIYYCTVGTLVYWGQGTLVTVSA
VL: DIVLTQSPASLVVSLGQRATISCRASQSVSTSTYNYMHWYQQKPGQPPKLLIKFASNLESGVPARFSGSGSGTDFTLNIHPVEEEDTATFYCQHSWEIPYTFGGGTKLEIKR
notes: as for B1
As to B5, the EC50 worked out at 0.021 nM in the test with CRH (NT-Biotin) and 0.013 nM with CRH (CT-Biotin). In addition, the “hCRHR1 Reporter IC50” value in test [1] came out at 1.04 nM.

B6: PR301806 (antibody, human IgG1, kappa, V domains shown)
VH: QVQLQQPGAELVKPGTSVKMSCKASGYTFTSYWMHWVKQRPGQGLEWIGDIYPGSDSTNYNEKFKSKASLTVDTSSSTAYMQLSSLTSEDSAVYYCARSITTTTFWYFDVWGAGTTVTVSS
VL: DVLMTQTPLSLPVSLGDQASISCRSSQSFVYSNGNTYLQWYLQKPGQSPKLLIYKVSNRFSGVPDRFSGSGSGTDFTLKISRVEAEDLGVYYCFQGSHVPPTFGAGTKLELKR
notes: Mouse variable domains, expressed recombinantly with human IgG1 wildtype Fc; also called Series 6 mAb
As to B6, the results for the EC50 with CRH (NT-Biotin) and with CRH (CT-Biotin) were 0.013 nM and 0.006 nM, respectively. Besides, the “hCRHR1 Reporter IC50” value in test [1] was 4.53 nM.

B7: PR301780 (antibody, human IgG1, kappa, V domains shown)
VH: QIQLVQSGPELKKPGETVKISCKASGYTFTNFGLNWVKQAPGKGLKWMGWINTYTGEPTYTDDFKGRFAFSLETSASTAYLQINNLKKEDTATYFCARGTYRDDGAWFAYWGQGTLVTVSA
VL: DVLMTQTPLSLPVSLGDQASISCRSSQIIVHSNGNTYLEWYLQKPGQSPKLLIYKVSNRFSGVPDRFSGSGSGTDFTLKISRVEAEDLGVYHCFQGSHVPWTFGGGTKLEIKR
notes: Mouse variable domains, expressed recombinantly with human IgG1 wildtype Fc; also called Series 7 mAb
Consider B7, for which the EC50 in the test with CRH (NT-Biotin) stood at 0.938 nM; in the test with CRH (CT-Biotin), 0.03 nM. Also, in test [1], the “hCRHR1 Reporter IC50” value worked out at 61.1 nM.

B8: PR004289 (antibody, human IgG1, kappa, V domains shown)
VH: EVQLVESGGVLVQPGGSLRLSCAASGFIFSSYWMTWVRQAPGKGLEWVANIKQDGSEKYYVDSVKGRFTISRDNAKNSLFLQMNSLRAEDTAVYYCARTLIFDYWGQGTLVTVSS
VL: DIVMTQSPLSLPVTPGEPASISCRSSQSLLHSTGYNSLEWYLQKPGQSPQLLIYLGSNRASGVPDRFSGSGSGTDFTLKISRVEAEDVGIYYCMQTLQTPITFGQGTRLEIKR
notes: Expressed recombinantly with human IgG1 wildtype Fc; also called Hybridoma Clone 16g2; Series 1 mAb
As to B8, the EC50 with CRH (NT-Biotin) and with CRH (CT-Biotin) was 0.023 nM each time. Also, the “hCRHR1 Reporter IC50” value in test [1] is 3.13 nM.

B9: PR302333 (antibody, human IgG1, kappa, V domains shown)
VH: QIQLVQSGPELKKPGETVKISCKASGYTFTNFGMNWVKQAPGKVLKWMGWINTYTGEPIYADDFKGRFAFSLETSASAAYLQINNLKNEDTATYFCSRSTMITTGGVFAYWGQGTLVTVSA
VL: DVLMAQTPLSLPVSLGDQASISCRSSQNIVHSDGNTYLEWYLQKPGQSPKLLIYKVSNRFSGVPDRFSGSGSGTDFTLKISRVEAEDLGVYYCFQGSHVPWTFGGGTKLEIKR
notes: as for B7
In the case of B9, the EC50 with CRH (NT-Biotin) is 0.035 nM; with CRH (CT-Biotin), 0.022 nM. In addition, the “hCRHR1 Reporter IC50” value in test [1] amounted to 1.92 nM.

B10: PR302309 (antibody, human IgG1, kappa, V domains shown)
VH: QIQLVQSGPELKKPGETVKISCKASGYTFTNYGMNWVKQAPGKVLKWMGWINTYTGEPIYTDDFKGRFAFSLETSASTAYLQINNLKNEDTATYFCSRSTMITTGGVFAYWGQGTLVTVSA
VL: DVLMAQTPLSLPVSLGDQASISCRSSQTIVHSDGNTYLEWYLQKPGQSPKLLIYKVSNRFSGVPDRFSGSGSGTDFTLKISRVEAEDLGVYYCFQGSHVPWTFGGGTKLEIKR
notes: as for B7
As to B10, the EC50 with CRH (NT-Biotin) worked out at 0.028 nM; with CRH (CT-Biotin), 0.015 nM. Moreover, the “hCRHR1 Reporter IC50” value in test [1] was 1.38 nM.

B11: PR302309-20 (antibody, human IgG1, kappa, V domains shown)
VH: QIQLVQSGAEVKKPGASVKVSCKASGYTFTNYGMNWVRQAPGQRLEWMGWINTYTGEPIYTDDFKGRVTITLDTSASTAYMELSSLRSEDTAVYYCSRSTMITTGGVFAYWGQGTLVTVSS
VL: DVVMTQTPLSLSVTPGQPASISCRSSQTIVHSDGNTYLEWYLQKPGQSPQLLIYKVSNRFSGVPDRFSGSGSGTDFTLKISRVEAEDLGVYYCFQGSHVPWTFGGGTKVEIKR
Regarding B11, the “hCRHR1 Luciferase Reporter Assay IC50” value in test [2] amounted to 3.07 nM.

B12: PR302309-21 (antibody, human IgG1, kappa, V domains shown)
VH: QIQLVQSGAEVKKPGASVKVSCKASGYTFTNYGMNWVRQAPGQRLEWMGWINTYTGEPIYTDDFKGRVTITLDTSASTAYMELSSLRSEDTAVYYCSRSTMITTGGVFAYWGQGTLVTVSS
VL: DVVMTQTPLSSPVTLGQPASISCRSSQTIVHSDGNTYLEWYQQRPGQPPRLLIYKVSNRFSGVPDRFSGSGAGTDFTLKISRVEAEDLGVYYCFQGSHVPWTFGGGTKVEIKR
Take B12: in test [2], the “hCRHR1 Luciferase Reporter Assay IC50” value was found to be 8.44 nM.

B13: PR301612 (antibody, human IgG1, kappa, V domains shown)
VH: EVKLEESGGGLVQPGGSIKLSCVASGFTFSGAWMAWVRQSPEKGLEWVAEIKNKANNHATFYAESVKGRFIISRDDSKSSVYLQMNSLRAEDTGTYYCTLPDVWGTGTTVTVSS
VL: QIVLTQSPAIMSASPGERVTISCSASSSVSNMYWYLQKPGSSPKPWIYRTSNLASGVPARFSGSGSGTSYSLTISSMEAEDVATYYCQQYHSFPRTFGGGTKLEIKR
notes: Mouse variable domains, expressed recombinantly with human IgG1 wildtype Fc; also called Series 4 mAb
Regarding B13, the “hCRHR1 Reporter IC50” value in test [1] is 18.1 nM. In the test with CRH (CT-Biotin), this molecule had an EC50 of 0.033 nM.

The values above are taken from US20260042834A1 (HBM ALPHA THERAPEUTICS, published 2026).
